B1: target 1 insU 3' of 21,insC 3' of 1 (mixed)
RNA 1: CACCCGUGCAAAAAUGCAGGGGUCUAAAACUGAGCGGAUAACCUCUCUAUGG
RNA 2: GGGAAUGGAUCCACAUCUACGAAUUCGUACCUAUAGAGAGGUUAUCCGCUCACCCGAGAUCGGAAGAGCACACGU
B2: target 1 U10C,U19C (mixed)
RNA 1: B1 RNA 1
RNA 2: GGGAAUGGAUCCACAUCUACGAAUUCGUACCACAGAGAGGUCAUCCGCUCACCGAGAUCGGAAGAGCACACGU
B3: target 3 C1A,U10G (mixed)
RNA 1: CACCCGUGCAAAAUUGCAGGGGUCUAAAACGACCUGAAUAUUUCAGAUCAAA
RNA 2: GGGAAUGGAUCCACAUCUACGAAUUCGUUUUUGAUCUGAAAGAUUCAGGUAUGCAGAUCGGAAGAGCACACGU
B4: target 3 insA 3' of 21,insC 3' of 20 (mixed)
RNA 1: B3 RNA 1
RNA 2: GGGAAUGGAUCCACAUCUACGAAUUCGUUUUAUCGAUCUGAAAUAUUCAGGUCUGCAGAUCGGAAGAGCACACGU
B5: target 3 U2G,A5U (mixed)
RNA 1: B3 RNA 1
RNA 2: B3 RNA 2 with G42U, A47U, U50G, A51C
B6: target 3 insA 3' of 16,insA 3' of 2 (mixed)
RNA 1: B3 RNA 1
RNA 2: GGGAAUGGAUCCACAUCUACGAAUUCGUUUUUGAUCAUGAAAUAUUCAGGUACUGCAGAUCGGAAGAGCACACGU
B7: target 3 insU 3' of 3,insG 3' of 2 (mixed)
RNA 1: B3 RNA 1
RNA 2: GGGAAUGGAUCCACAUCUACGAAUUCGUUUUUGAUCUGAAAUAUUCAGGUUGCUGCAGAUCGGAAGAGCACACGU
B8: target 3 complement block 3-6 (mixed)
RNA 1: B3 RNA 1
RNA 2: B3 RNA 2 with G42U, C46G, A47U, G48C, G49C, A51C
B9: target 3 insA 3' of 7,insA 3' of 6 (mixed)
RNA 1: B3 RNA 1
RNA 2: B7 RNA 2 with C46A, A47C, G48A, G49A, U50G, U51G, G52U
B10: target 3 C1G,C6G (mixed)
RNA 1: B3 RNA 1
RNA 2: B3 RNA 2 with G42U, C46G, A51G
B11: target 3 G3U,G4A (mixed)
RNA 1: B3 RNA 1
RNA 2: B3 RNA 2 with G42U, G48A, G49U, A51C
B12: target 3 insG 3' of 2 (mixed)
RNA 1: B3 RNA 1
RNA 2: GGGAAUGGAUCCACAUCUACGAAUUCGUUUUUGAUCUGAAAUAUUCAGGUGCUGCAGAUCGGAAGAGCACACGU
B13: target 3 G4U,U21G (mixed)
RNA 1: B3 RNA 1
RNA 2: B3 RNA 2 with U31G, G42U, G48U, A51C
B14: target 3 insA 3' of 3,insA 3' of 3 (mixed)
RNA 1: B3 RNA 1
RNA 2: B7 RNA 2 with U50A, U51A, G52U
B15: target 3 insA 3' of 22,insA 3' of 3 (mixed)
RNA 1: B3 RNA 1
RNA 2: B6 RNA 2 with U31A, G33U, A34G, U35A, C36U, A37C, U51A, A52U
B16: target 3 insU 3' of 4,insA 3' of 3 (mixed)
RNA 1: B3 RNA 1
RNA 2: B7 RNA 2 with G49U, U50G, U51A, G52U
B17: target 3 U2G,A18G (mixed)
RNA 1: B3 RNA 1
RNA 2: B3 RNA 2 with A34G, G42U, U50G, A51C
B18: target 3 U7A,A9G (mixed)
RNA 1: B3 RNA 1
RNA 2: B3 RNA 2 with G42U, A43G, U45A, A51C
B19: target 3 G4C,A5C (mixed)
RNA 1: B3 RNA 1
RNA 2: B3 RNA 2 with G42U, A47C, G48C, A51C
B20: target 3 A18G,U20A (mixed)
RNA 1: B3 RNA 1
RNA 2: B3 RNA 2 with U32A, A34G, G42U, A51C
B21: target 3 C6A,U8A (mixed)
RNA 1: B3 RNA 1
RNA 2: B3 RNA 2 with G42U, U44A, C46A, A51C
B22: target 3 insU 3' of 22,insU 3' of 11 (mixed)
RNA 1: B3 RNA 1
RNA 2: B4 RNA 2 with A32U, C34G, G35A, A36U, U37C, C38U, U39G, G40A, A43U
B23: target 3 A5U,U7A (mixed)
RNA 1: B3 RNA 1
RNA 2: B3 RNA 2 with G42U, U45A, A47U, A51C
B24: target 3 insU 3' of 4,insC 3' of 3 (mixed)
RNA 1: B3 RNA 1
RNA 2: B7 RNA 2 with G49U, U50G, U51C, G52U
B25: target 3 insU 3' of 19 (mixed)
RNA 1: B3 RNA 1
RNA 2: GGGAAUGGAUCCACAUCUACGAAUUCGUUUUUGUAUCUGAAAUAUUCAGGUCUGCAGAUCGGAAGAGCACACGU
B26: target 3 C6A,A11G (mixed)
RNA 1: B3 RNA 1
RNA 2: B3 RNA 2 with A41G, G42U, C46A, A51C
B27: target 3 insC 3' of 7,insC 3' of 2 (mixed)
RNA 1: B3 RNA 1
RNA 2: B7 RNA 2 with A47C, G48A, U50G, G52C
B28: target 3 insA 3' of 15,insG 3' of 2 (mixed)
RNA 1: B3 RNA 1
RNA 2: B6 RNA 2 with A37U, U38A, A52G
B29: target 3 insU 3' of 22,insC 3' of 8 (mixed)
RNA 1: B3 RNA 1
RNA 2: GGGAAUGGAUCCACAUCUACGAAUUCGUUUUUUGAUCUGAAAUAUCUCAGGUCUGCAGAUCGGAAGAGCACACGU
B30: target 3 A18G,U22A (mixed)
RNA 1: B3 RNA 1
RNA 2: B3 RNA 2 with U30A, A34G, G42U, A51C

Numbering of substitutions follows the chain as printed. In names and notes the source's numbering stands.

This data set concerns the target T1, EsCas13d, nuclease-dead (Eubacterium siraeum, UniProt B0MS50, R295A;H300A;R849A;H854A).
T1 sequence: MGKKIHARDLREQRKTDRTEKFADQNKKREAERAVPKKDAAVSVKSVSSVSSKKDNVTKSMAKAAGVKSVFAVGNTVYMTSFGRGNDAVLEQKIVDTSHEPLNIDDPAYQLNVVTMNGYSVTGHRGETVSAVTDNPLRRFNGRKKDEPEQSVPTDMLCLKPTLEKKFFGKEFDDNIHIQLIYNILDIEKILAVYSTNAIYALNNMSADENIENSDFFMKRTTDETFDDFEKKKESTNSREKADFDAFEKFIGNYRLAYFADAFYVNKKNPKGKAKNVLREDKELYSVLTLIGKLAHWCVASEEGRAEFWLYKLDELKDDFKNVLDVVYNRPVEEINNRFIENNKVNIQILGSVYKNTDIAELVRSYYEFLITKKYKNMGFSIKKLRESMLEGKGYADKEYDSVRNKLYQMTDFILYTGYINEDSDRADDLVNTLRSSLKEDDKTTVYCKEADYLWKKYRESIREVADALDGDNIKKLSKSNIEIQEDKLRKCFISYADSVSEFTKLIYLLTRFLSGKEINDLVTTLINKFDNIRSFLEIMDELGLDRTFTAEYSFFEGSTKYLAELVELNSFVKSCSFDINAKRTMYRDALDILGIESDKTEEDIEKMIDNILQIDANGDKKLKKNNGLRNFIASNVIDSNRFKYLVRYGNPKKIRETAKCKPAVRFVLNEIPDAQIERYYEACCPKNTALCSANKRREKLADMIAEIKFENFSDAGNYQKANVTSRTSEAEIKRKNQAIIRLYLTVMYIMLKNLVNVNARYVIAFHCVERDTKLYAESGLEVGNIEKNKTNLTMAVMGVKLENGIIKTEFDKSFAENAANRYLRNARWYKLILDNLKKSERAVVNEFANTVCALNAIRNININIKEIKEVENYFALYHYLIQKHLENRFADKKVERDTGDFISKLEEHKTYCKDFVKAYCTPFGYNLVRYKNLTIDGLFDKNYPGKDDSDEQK
Description: crRNA (strand 1, pre-loaded); Mg2+; 40 mM Tris-HCl pH 7.5, 150 mM NaCl, 6 mM MgCl2, 1 mM DTT, 0.1% Tween-20, 0.2 mg/ml BSA; 25 C; 10 min per concentration, then washed. The settings on record: tags: His6-TwinStrep-SUMO cleaved; N-terminal SNAP kept (SNAP-Surface 488); label: 3' end held by stalled T7 RNA polymerase.
B1: the dissociation constant (Kd) (commonly the free concentration of one partner at which half of the binding sites on the other are occupied at equilibrium, for simple one-to-one binding) came to 20.5 ± 0.8 nM.

B2 yielded a dissociation constant (Kd) of 70 ± 12 nM.

Molecule B3 came in with a Kd of around 90.5 nM.

Consider B4, for which the affinity, expressed as Kd, was 73.5 ± 20.5 nM.

Molecule B5 showed a dissociation constant Kd of 9.2 ± 1.2 nM.

Regarding B6, the Kd came out at 84.5 ± 25.5 nM. Compared with the last molecule, the Kd is about 9.2-fold higher.

For the molecule B7, the dissociation constant (Kd) was found to be 27 ± 4.5 nM.

In the case of B8, the affinity, expressed as Kd, was 57 ± 6 nM.

Regarding B9, the affinity, expressed as Kd, was 23.7 ± 2.65 nM. This Kd is about 2.4-fold lower than that of the molecule before.

In the case of B10, the affinity, expressed as Kd, was 18.7 ± 3.15 nM.

B11 had an equilibrium dissociation constant (Kd) of 7.75 ± 1.05 nM.

B12 came in with a Kd of 37.1 ± 3.7 nM.

As for B13, the Kd came out at 65 ± 14 nM.

The molecule B14 had a Kd of 15.5 ± 1.65 nM.

Molecule B15 registered a Kd of 22.2 ± 4.4 nM.

For B16, the dissociation constant (Kd) was determined as 17.8 ± 2.45 nM.

For B17, the affinity, expressed as Kd, was 59.5 ± 7.5 nM. Against the preceding molecule, the Kd is about 3.3-fold higher.

For the molecule B18, the affinity, expressed as Kd, was 97 ± 17.5 nM.

With B19, binding was put at a Kd of 130 ± 40 nM.

Take B20: binding was put at a Kd of 83.5 ± 36.5 nM.

Molecule B21 gave a dissociation constant (Kd) of 59 ± 8.5 nM.

In the case of B22, the affinity, expressed as Kd, was 62 ± 19.5 nM.

Turning to B23, the affinity, expressed as Kd, was 62.4 ± 5.4 nM.

Molecule B24 had an equilibrium dissociation constant (Kd) of 17.4 ± 1.7 nM.

On to B25, for which the Kd turned out to be 78 ± 29.5 nM.

With B26, the affinity, expressed as Kd, was 98 ± 23 nM.

Turning to B27, the Kd is around 120 nM.

For B28, binding was characterised by a dissociation constant (Kd) of 68.5 ± 21.5 nM.

Molecule B29 gave a Kd of 106 ± 32 nM.

Consider B30, for which the Kd is 14.8 ± 1.75 nM.

The record behind these values is paper PMC10786891, “Massively parallel profiling of RNA-targeting CRISPR-Cas13d”.
